PMC2199218 (The Journal of Cell Biology, 2002)
“And” between values parts separate entries of the source, which are not always exact repeats. Equal values may be shown once.

Tests used:
[1] = target: integrin β1A cytoplasmic domain fused to the Gal4 DNA BD (human); experiment: two-hybrid
cross-linking = target: the molecule itself; experiment: cross-linking

Sequence of filamin-B_(var-1)(19–24), Gal4 AD fusion (domain or fragment) (O75369 whole entry, the tested form may be a part): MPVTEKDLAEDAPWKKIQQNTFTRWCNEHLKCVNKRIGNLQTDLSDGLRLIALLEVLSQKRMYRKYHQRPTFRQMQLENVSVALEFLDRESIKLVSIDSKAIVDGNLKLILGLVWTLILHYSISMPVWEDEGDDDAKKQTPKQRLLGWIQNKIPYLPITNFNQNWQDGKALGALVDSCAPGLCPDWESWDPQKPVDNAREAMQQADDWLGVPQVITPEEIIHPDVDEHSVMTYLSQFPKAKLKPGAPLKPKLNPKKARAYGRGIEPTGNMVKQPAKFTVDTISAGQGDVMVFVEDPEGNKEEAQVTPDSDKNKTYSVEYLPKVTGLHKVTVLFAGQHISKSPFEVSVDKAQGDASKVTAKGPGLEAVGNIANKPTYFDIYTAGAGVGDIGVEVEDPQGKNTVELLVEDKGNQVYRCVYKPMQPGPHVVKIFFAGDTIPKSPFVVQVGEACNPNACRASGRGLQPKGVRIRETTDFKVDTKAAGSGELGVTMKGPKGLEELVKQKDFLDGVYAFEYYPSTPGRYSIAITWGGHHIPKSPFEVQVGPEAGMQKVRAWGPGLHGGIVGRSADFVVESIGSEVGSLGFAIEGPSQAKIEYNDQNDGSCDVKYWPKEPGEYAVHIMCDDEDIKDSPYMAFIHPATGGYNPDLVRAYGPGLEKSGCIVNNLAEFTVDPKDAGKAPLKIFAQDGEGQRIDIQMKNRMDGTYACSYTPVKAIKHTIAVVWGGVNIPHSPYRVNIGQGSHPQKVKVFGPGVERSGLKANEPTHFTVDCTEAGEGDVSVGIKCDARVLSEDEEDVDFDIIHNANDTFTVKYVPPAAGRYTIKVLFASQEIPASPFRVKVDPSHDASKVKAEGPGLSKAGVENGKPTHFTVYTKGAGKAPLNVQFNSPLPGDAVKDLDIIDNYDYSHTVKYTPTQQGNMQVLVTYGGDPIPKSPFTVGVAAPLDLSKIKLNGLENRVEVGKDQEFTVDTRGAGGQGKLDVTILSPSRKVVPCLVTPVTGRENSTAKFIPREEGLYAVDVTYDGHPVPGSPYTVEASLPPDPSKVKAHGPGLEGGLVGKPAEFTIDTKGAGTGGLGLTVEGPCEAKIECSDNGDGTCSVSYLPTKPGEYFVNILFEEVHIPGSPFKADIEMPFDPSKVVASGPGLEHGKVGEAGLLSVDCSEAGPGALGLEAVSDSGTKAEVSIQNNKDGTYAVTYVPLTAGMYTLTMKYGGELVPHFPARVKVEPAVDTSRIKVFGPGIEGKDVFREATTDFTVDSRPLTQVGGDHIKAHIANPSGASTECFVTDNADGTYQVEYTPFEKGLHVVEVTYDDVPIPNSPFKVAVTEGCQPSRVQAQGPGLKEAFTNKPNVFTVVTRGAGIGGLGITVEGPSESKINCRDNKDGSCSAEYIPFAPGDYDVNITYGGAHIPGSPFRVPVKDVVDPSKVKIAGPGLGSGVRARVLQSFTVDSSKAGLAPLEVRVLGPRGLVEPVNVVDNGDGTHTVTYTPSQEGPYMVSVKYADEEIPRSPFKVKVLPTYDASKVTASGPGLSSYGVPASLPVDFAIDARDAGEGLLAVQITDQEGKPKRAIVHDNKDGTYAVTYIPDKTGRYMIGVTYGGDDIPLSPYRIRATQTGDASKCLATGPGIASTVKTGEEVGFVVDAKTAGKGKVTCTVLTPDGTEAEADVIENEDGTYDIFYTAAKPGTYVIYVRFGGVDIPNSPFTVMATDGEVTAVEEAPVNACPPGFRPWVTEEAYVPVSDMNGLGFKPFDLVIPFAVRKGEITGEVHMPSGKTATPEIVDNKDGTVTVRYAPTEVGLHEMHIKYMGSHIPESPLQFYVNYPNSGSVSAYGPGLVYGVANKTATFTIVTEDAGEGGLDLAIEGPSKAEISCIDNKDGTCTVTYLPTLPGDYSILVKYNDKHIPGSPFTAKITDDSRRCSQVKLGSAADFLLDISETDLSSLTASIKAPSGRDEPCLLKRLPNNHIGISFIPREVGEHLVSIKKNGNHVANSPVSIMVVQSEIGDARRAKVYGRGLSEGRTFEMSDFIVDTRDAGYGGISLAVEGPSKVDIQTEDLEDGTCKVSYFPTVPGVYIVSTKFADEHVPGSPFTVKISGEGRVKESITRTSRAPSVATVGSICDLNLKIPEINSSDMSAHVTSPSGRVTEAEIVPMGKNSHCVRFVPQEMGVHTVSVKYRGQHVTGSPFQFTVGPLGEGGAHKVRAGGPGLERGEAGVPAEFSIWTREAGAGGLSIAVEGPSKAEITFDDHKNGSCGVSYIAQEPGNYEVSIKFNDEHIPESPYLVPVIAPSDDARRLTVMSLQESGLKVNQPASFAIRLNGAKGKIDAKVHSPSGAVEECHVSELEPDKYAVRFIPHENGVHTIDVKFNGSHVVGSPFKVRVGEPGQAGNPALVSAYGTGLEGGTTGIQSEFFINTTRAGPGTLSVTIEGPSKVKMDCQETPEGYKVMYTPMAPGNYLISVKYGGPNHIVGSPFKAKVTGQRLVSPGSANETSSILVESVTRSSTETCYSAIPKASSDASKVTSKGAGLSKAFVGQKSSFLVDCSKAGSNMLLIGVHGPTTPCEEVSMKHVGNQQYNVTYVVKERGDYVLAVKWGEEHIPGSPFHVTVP
Sequence of integrin β1A cytoplasmic domain fused to the Gal4 DNA BD (human) (P05556 21-798): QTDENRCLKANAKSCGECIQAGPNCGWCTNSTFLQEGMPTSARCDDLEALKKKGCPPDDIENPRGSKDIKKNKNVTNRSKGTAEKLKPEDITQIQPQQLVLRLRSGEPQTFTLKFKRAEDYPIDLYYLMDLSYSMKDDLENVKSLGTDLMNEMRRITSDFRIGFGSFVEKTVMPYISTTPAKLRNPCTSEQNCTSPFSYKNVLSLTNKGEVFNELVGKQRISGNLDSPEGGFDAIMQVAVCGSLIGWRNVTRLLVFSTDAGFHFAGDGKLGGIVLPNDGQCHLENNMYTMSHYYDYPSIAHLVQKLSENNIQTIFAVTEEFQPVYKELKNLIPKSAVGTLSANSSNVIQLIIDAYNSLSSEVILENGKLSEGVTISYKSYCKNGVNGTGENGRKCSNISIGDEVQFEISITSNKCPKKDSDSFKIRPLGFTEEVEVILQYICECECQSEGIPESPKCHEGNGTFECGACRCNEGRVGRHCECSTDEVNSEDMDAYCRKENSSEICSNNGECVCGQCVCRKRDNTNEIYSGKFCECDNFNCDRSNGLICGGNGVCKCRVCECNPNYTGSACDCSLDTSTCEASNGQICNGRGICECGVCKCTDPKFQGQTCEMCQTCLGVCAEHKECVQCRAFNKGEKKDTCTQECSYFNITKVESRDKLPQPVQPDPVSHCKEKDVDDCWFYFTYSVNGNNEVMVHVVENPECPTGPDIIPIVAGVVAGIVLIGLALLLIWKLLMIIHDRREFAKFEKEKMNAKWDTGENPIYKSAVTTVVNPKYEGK

fold binding (β-galactosidase activity) against wild-type filamin-B(19–24) [1] | Molecule | stoichiometry N (cross-linking)
2 fold and 3 fold | filamin-B_(var-1)(19–24), Gal4 AD fusion (domain or fragment) | –
– | NH2-terminal HA-tagged FLN-B(19–24) (domain or fragment, human, UniProt O75369-1 2009-2602, looked up) GRGLSEGRTFEMSDFIVDTRDAGYGGISLAVEGPSKVDIQTEDLEDGTCKVSYFPTVPGVYIVSTKFADEHVPGSPFTVKISGEGRVKESITRTSRAPSVATVGSICDLNLKIPEINSSDMSAHVTSPSGRVTEAEIVPMGKNSHCVRFVPQEMGVHTVSVKYRGQHVTGSPFQFTVGPLGEGGAHKVRAGGPGLERGEAGVPAEFSIWTREAGAGGLSIAVEGPSKAEITFDDHKNGSCGVSYIAQEPGNYEVSIKFNDEHIPESPYLVPVIAPSDDARRLTVMSLQESGLKVNQPASFAIRLNGAKGKIDAKVHSPSGAVEECHVSELEPDKYAVRFIPHENGVHTIDVKFNGSHVVGSPFKVRVGEPGQAGNPALVSAYGTGLEGGTTGIQSEFFINTTRAGPGTLSVTIEGPSKVKMDCQETPEGYKVMYTPMAPGNYLISVKYGGPNHIVGSPFKAKVTGQRLVSPGSANETSSILVESVTRSSTETCYSAIPKASSDASKVTSKGAGLSKAFVGQKSSFLVDCSKAGSNMLLIGVHGPTTPCEEVSMKHVGNQQYNVTYVVKERGDYVLAVKWGEEHIPGSPFHVTVP | 2
– | COOH-terminal GFP-tagged FLN-B(19–24) (domain or fragment, human, UniProt O75369-1 2009-2602, looked up) GRGLSEGRTFEMSDFIVDTRDAGYGGISLAVEGPSKVDIQTEDLEDGTCKVSYFPTVPGVYIVSTKFADEHVPGSPFTVKISGEGRVKESITRTSRAPSVATVGSICDLNLKIPEINSSDMSAHVTSPSGRVTEAEIVPMGKNSHCVRFVPQEMGVHTVSVKYRGQHVTGSPFQFTVGPLGEGGAHKVRAGGPGLERGEAGVPAEFSIWTREAGAGGLSIAVEGPSKAEITFDDHKNGSCGVSYIAQEPGNYEVSIKFNDEHIPESPYLVPVIAPSDDARRLTVMSLQESGLKVNQPASFAIRLNGAKGKIDAKVHSPSGAVEECHVSELEPDKYAVRFIPHENGVHTIDVKFNGSHVVGSPFKVRVGEPGQAGNPALVSAYGTGLEGGTTGIQSEFFINTTRAGPGTLSVTIEGPSKVKMDCQETPEGYKVMYTPMAPGNYLISVKYGGPNHIVGSPFKAKVTGQRLVSPGSANETSSILVESVTRSSTETCYSAIPKASSDASKVTSKGAGLSKAFVGQKSSFLVDCSKAGSNMLLIGVHGPTTPCEEVSMKHVGNQQYNVTYVVKERGDYVLAVKWGEEHIPGSPFHVTVP | 2
